Test results published in PMC7604772 (The Journal of Cell Biology, 2020).
Square brackets hold non-standard residues; d marks the D form. * marks the point of attachment. Biotin = O=C1N[C@H]2[C@H](CS[C@H]2CCCCC(=O)*)N1; pT = C[C@@H](OP(=O)(O)O)[C@H](N)C(=O)O

Target: His-Sumo–tagged talin F3 subdomain of the FERM domain (mouse, UniProt P26039 309-411)
Experiment: pull-down

Chain of His-Sumo–tagged talin F3 subdomain of the FERM domain (P26039 309-411): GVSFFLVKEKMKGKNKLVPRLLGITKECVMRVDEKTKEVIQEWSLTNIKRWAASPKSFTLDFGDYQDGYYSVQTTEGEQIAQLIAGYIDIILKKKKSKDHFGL

Binder	binding result
Biotin-EFAKFEKEKMNAKWDTGENPIYKSAVTTVVNPKYEGK-OH (SMILES CC[C@H](C)[C@H](NC(=O)[C@@H]1CCCN1C(=O)[C@H](CC(N)=O)NC(=O)[C@H](CCC(=O)O)NC(=O)CNC(=O)[C@@H](NC(=O)[C@H](CC(=O)O)NC(=O)[C@H](Cc1c[nH]c2ccccc12)NC(=O)[C@H](CCCCN)NC(=O)[C@H](C)NC(=O)[C@H](CC(N)=O)NC(=O)[C@H](CCSC)NC(=O)[C@H](CCCCN)NC(=O)[C@H](CCC(=O)O)NC(=O)[C@H](CCCCN)NC(=O)[C@H](CCC(=O)O)NC(=O)[C@H](Cc1ccccc1)NC(=O)[C@H](CCCCN)NC(=O)[C@H](C)NC(=O)[C@H](Cc1ccccc1)NC(=O)[C@H](CCC(=O)O)NC(=O)CCCC[C@@H]1SC[C@@H]2NC(=O)N[C@@H]21)[C@@H](C)O)C(=O)N[C@@H](Cc1ccc(O)cc1)C(=O)N[C@@H](CCCCN)C(=O)N[C@@H](CO)C(=O)N[C@@H](C)C(=O)N[C@H](C(=O)N[C@H](C(=O)N[C@H](C(=O)N[C@H](C(=O)N[C@H](C(=O)N[C@@H](CC(N)=O)C(=O)N1CCC[C@H]1C(=O)N[C@@H](CCCCN)C(=O)N[C@@H](Cc1ccc(O)cc1)C(=O)N[C@@H](CCC(=O)O)C(=O)NCC(=O)N[C@@H](CCCCN)C(=O)O)C(C)C)C(C)C)[C@@H](C)O)[C@@H](C)O)C(C)C) [biotin-integrin peptide β1-762-798]	binds
Biotin-EFAKFEKEKMNAKWDTGENPIYKSAV[pT][pT]VVNPKYEGK-OH (SMILES CC[C@H](C)[C@H](NC(=O)[C@@H]1CCCN1C(=O)[C@H](CC(N)=O)NC(=O)[C@H](CCC(=O)O)NC(=O)CNC(=O)[C@@H](NC(=O)[C@H](CC(=O)O)NC(=O)[C@H](Cc1c[nH]c2ccccc12)NC(=O)[C@H](CCCCN)NC(=O)[C@H](C)NC(=O)[C@H](CC(N)=O)NC(=O)[C@H](CCSC)NC(=O)[C@H](CCCCN)NC(=O)[C@H](CCC(=O)O)NC(=O)[C@H](CCCCN)NC(=O)[C@H](CCC(=O)O)NC(=O)[C@H](Cc1ccccc1)NC(=O)[C@H](CCCCN)NC(=O)[C@H](C)NC(=O)[C@H](Cc1ccccc1)NC(=O)[C@H](CCC(=O)O)NC(=O)CCCC[C@@H]1SC[C@@H]2NC(=O)N[C@@H]21)[C@@H](C)O)C(=O)N[C@@H](Cc1ccc(O)cc1)C(=O)N[C@@H](CCCCN)C(=O)N[C@@H](CO)C(=O)N[C@@H](C)C(=O)N[C@H](C(=O)N[C@H](C(=O)N[C@H](C(=O)N[C@H](C(=O)N[C@H](C(=O)N[C@@H](CC(N)=O)C(=O)N1CCC[C@H]1C(=O)N[C@@H](CCCCN)C(=O)N[C@@H](Cc1ccc(O)cc1)C(=O)N[C@@H](CCC(=O)O)C(=O)NCC(=O)N[C@@H](CCCCN)C(=O)O)C(C)C)C(C)C)[C@@H](C)OP(=O)(O)O)[C@@H](C)OP(=O)(O)O)C(C)C) [biotin-integrin phospho-peptide β1-762-798 pTpT]	binds
